Measurements: publication PMC12444472, “BCI inhibits MKP3 by targeting the kinase-binding domain and disrupting ERK2 interaction” (The Journal of Biological Chemistry, 2025)

What was measured:
[1] = target: T1, Full-length human MKP3, MKP3(1-381) (human) (UniProt Q16828)
T1 sequence: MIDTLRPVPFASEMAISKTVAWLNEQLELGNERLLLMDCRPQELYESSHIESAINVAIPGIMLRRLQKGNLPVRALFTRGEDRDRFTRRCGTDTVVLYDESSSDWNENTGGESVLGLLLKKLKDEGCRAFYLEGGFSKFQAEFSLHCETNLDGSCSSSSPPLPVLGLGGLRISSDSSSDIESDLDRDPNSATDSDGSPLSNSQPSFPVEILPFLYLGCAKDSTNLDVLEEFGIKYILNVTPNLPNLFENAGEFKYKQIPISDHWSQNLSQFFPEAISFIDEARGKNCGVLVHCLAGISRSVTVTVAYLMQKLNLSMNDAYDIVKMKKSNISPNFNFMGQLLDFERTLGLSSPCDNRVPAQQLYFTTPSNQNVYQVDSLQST

MKP3 = details: basal, without ERK2; cited from earlier work

In the case of “Phosphorylated ERK2 (bis-pERK2, phosphorylated at T183 and Y185) (from UniProt P63085 1-358) (enzyme)”, the time of pERK2 dephosphorylation by MKP3^FL with BCI at a concentration 50 times that of pERK2 [1] is reported as > 20 fold.

For `O=C1C(SCCO)=C(SCCO)C(=O)c2ccccc21` [NSC95397], the “effect on MKP3's basal activity toward OMFP” value (MKP3) is given as “inhibited”.
